The nature of this data set: affinity of cytochrome P450 2B6 protein for CPA. It counts as biochemical, human. The text has this:
In one particularly advantageous embodiment, said variants and fragments have an affinity for CPA the same as, substantially the same as, or greater than, that of the mutant human cytochrome P450 2B6 protein (CYP2B6*) of SEQ ID No 1.

B1: CYP2B6*: mutant human cytochrome P450 2B6 protein of SEQ ID No. 1 (substitutions I114V, L199M, V477W) (protein, listed as Homo sapiens)
chain: MELSVLLFLALLTGLLLLLVQRHPNTHDRLPPGPRPLPLLGNLLQMDRRGLLKSFLRFREKYGDVFTVHLGPRPVVMLCGVEAIREALVDKAEAFSGRGKIAMVDPFFRGYGVVFANGNRWKVLRRFSVTTMRDFGMGKRSVEERIQEEAQCLIEELRKSKGALMDPTFLFQSITANIICSIVFGKRFHYQDQEFLKMMNLFYQTFSLISSVFGQLFELFSGFLKYFPGAHRQVYKNLQEINAYIGHSVEKHRETLDPSAPKDLIDTYLLHMEKEKSNAHSEFSHQNLNLNTLSLFFAGTETTSTTLRYGFLLMLKYPHVAERVYREIEQVIGPHRPPELHDRAKMPYTEAVIYEIQRFSDLLPMGVPHIVTQHTSFRGYIIPKDTEVFLILSTALHDPHYFEKPDAFNPDHFLDANGALKKTEAFIPFSLGKRICLGEGIARAELFLFFTTILQNFSMASPVAPEDIDLTPQECGWGKIPPTYQIRFLPR
For the molecule B1, the Vmax result (compared with CYP2B6 WT) is recorded as “same”. In addition, for the setting “vs CYP2B6 WT”, the “affinity for CPA relative to the wild-type protein (CYP2B6 WT)” value is listed as “more than 8 times”.

Values taken from US20250320461A1, “GENETICALLY MODIFIED HUMAN STEM CELL EXPRESSING A MUTANT HUMAN CYTOCHROME P450 2B6 PROTEIN AND ITS USE THEREOF IN THE TREATMENT OF CANCER” (ASSISTANCE PUBLIQUE-HOPITAUX DE PARIS, priority 2019, published 2025).
